Source: article PMC4739419, “Mutations in the nucleotide binding and hydrolysis domains of Helicobacter pylori MutS2 lead to altered biochemical activities and inactivation of its in vivo function” (BMC Microbiology, 2016)

Key:
[1] = Thermal denaturation monitored by CD at 222 nm; format: physicochemical; conditions: for temperature of 50 % unfolding: 25–80 °C; for thermal stability compared to the other variants: higher temperatures
Method: Fig. 4 Nucleotide and mutation induced conformational changes in HpMutS2. a Limited proteolysis. Proteins (4 μM) either free or pre-incubated with nucleotides (1 mM) were incubated with chymotrypsin (1.25 ng) for 30 min at 37 °C. All proteolysis reactions were performed in 1X buffer A lacking magnesium. Reactions were stopped by adding a protease inhibitor cocktail and the products were separated on SDS-PAGE (10 %). Lane M: Molecular weight marker. b Thermal stability profiles of wild-type HpMutS2, HpMutS2-G338R, and HpMutS2-E413A. Proteins (1 μM) dialyzed in 50 mM Tris-Cl and 100 mM NaCl were subjected to thermal denaturation and spectra were recorded at 222 nm using Jasco-815 spectropolarimeter
Freshly prepared proteins were dialyzed twice in buffer B for 4–6 h with at least two changes of the buffer. Far-UV CD spectra of proteins (1 μM) were obtained using a Jasco-815 spectropolarimeter equipped with a Peltier stage (Japan Spectroscopic Co., Japan) at 25 °C. The spectra were recorded between 200–300 nm with 20 mdeg sensitivity at a scan speed of 50 nm using 2 mm path length cuvette with a bandwidth of 2 nm. Control titrations were performed and all the CD spectra were corrected by subtracting control spectra. Thermal denaturation of the proteins was monitored at single wavelength (222 nm) by increasing temperature from 25 °C-80 °C. The percentage of unfolded protein was calculated by considering the protein at 25 °C as 100 % folded.

Holliday junction = assay: Nuclease assay (urea-PAGE); format: biochemical; conditions: for DNA cleavage rate: No nucleotide, DNA 1 nM, protein 150 nM, 37 °C
Method: (§1) Fig. 6 Effect of nucleotide cofactors on nuclease activity of HpMutS2 and mutants. Plots showing time dependent depletion of substrate DNA (a, b, c) Single-stranded DNA and d, e, f Holliday junction. DNA substrates (1 nM) were incubated with HpMutS2 and mutants (150 nM) at 37 °C. Reactions aliquots were removed at 0, 15, 30, 60, 90, and 120 min. The reactions were stopped using (50 mM EDTA + formamide dye) and the products were electrophoresed on urea-PAGE (15 %). The percentage reduction in substrate was calculated by considering DNA without protein as 100 %. Error bars represent standard deviation from two or more different experiments. (g, panel 1–6) Time dependent cleavage of Holliday junction by HpMutS2 and mutants. Reactions were performed as described in (A-F). Reactions aliquots were removed at 0, 15, 30, 60, 90, and 120 min
(§2) Radiolabeled DNA substrates were incubated with HpMutS2 and mutants in buffer D (50 mM Tris pH 8.0, 50 mM NaCl, 1 mM DTT, and 5 mM MgCl2). ATP, ADP, and ATPγS (1 mM each) were added separately to the reaction mixtures. 20 μl reaction aliquots were reomoved at 0, 15, 30, 60, 90, and 120 min. Reactions were stopped by adding EDTA (50 mM) + formammide dye (98 % formamide, 0.1 % bromophenol blue and 0.1 % xylene cyanol). The DNA substrates were denatured at 95 °C for 15 min and the reaction mixtures were separated on denaturing polyacrylamide gel (15 %) containing urea (7 M). The results were visualized and analysed as described earlier. DNA cleavage rates were estimated by dividing the total product formed (pM) in linear range of enzymatic activity by corresponding incubation time (min).

Single-stranded DNA = assay: Nuclease assay (urea-PAGE); format: biochemical; conditions: for DNA cleavage rate: No nucleotide, DNA 1 nM, protein 150 nM, 37 °C
Method: as §1, §2

Molecule | temperature of 50 % unfolding [1] | thermal stability compared to the other variants [1] | DNA cleavage rate (Holliday junction) [pM/min] | fold reduced nuclease activity compared to wild-type (Holliday junction; no nucleotide) | DNA cleavage rate (Single-stranded DNA) [pM/min] | fold reduced nuclease activity compared to wild-type (Single-stranded DNA; no nucleotide) | fold elevated nuclease activity compared to wild-type (Holliday junction; no nucleotide) | fold elevated nuclease activity compared to wild-type (Single-stranded DNA; no nucleotide) | fold reduction of Holliday junction cleavage rate by ADP (Holliday junction; ADP 1 mM vs no nucleotide) | fold reduction of Holliday junction cleavage activity in presence of ADP compared to ATP (Holliday junction; ADP vs ATP, 1 mM) | fold stimulation of Holliday junction cleavage rate by ATP (Holliday junction; ATP 1 mM vs no nucleotide) | fold reduced nuclease activity in presence of ATPγS (Holliday junction; ATPγS 1 mM vs no nucleotide)
HpMutS2-E413A (enzyme, also called Walker-B mutant) MSDAPKRSLNPTLMMNNNNTPPKPLEESLDLKEFIALFKTFFAKERDTIALENDLKQTFTYLNEVDAIGLPTPKSVKESDLIIIKLTKLGTLHLDEIFEIVKRLHYIVVLQNAFKTFTHLKFHERLNAIVLPPFFNDLIALFDDEGKIKQGANATLDALNESLNRLKKESVKIIHHYARSKELAPYLVDTQSHLKHGYECLLLKSGFSGAIKGVVLERSANGYFYLLPESAQKIAQKIAQIGNEIDCCIVEMCQTLSHSLQKHLLFLKFLFKEFDFLDSLQARLNFAKAYNLEFVMPSFTQKKMILENFSHPILKEPKPLNLKFEKSMLAVTGVNAGGKTMLLKSLLSAAFLSKHLIPMKINAHHSIIPYFKEIHAIINDPQNSANNISTFAGRMKQFSALLSKENMLLGVDAIELGTDADEASSLYKTLLEKLLKQNNQIIITTHHKRLSVLMAENKEVELLAALYDEEKERPTYTFLKGVIGKSYAFETALRYGVPHFLIEKAKTFYGEDKEKLNVLIENSSALERELKQKNEHLENALKEQEYLKNAWLLEMEKQKEIFHNKKLELEKSYQQALNILKSEVASKDTSSMHKEIHKASEILSKHKTNQEIPQIITNFQANEKARYKNESVLIVQILDKGYYWIETELGMRLKAHGSLLKKIQKPPKNKFKPPKTTIPKPKEASLRLDLRGQRSEEALDLLDAFLNDALLGGFEEVLICHGKGSGILEKFVKEFLKNHPKVVSFSDAPINLGGSGVKIVKL | ~ 50 °C | more unstable | 4.92 ± 1.25 | ~ 4 fold | 6.50 ± 0.55 | ~ 4 fold | – | – | – | – | – | –
HpMutS2-G338R (protein) MSDAPKRSLNPTLMMNNNNTPPKPLEESLDLKEFIALFKTFFAKERDTIALENDLKQTFTYLNEVDAIGLPTPKSVKESDLIIIKLTKLGTLHLDEIFEIVKRLHYIVVLQNAFKTFTHLKFHERLNAIVLPPFFNDLIALFDDEGKIKQGANATLDALNESLNRLKKESVKIIHHYARSKELAPYLVDTQSHLKHGYECLLLKSGFSGAIKGVVLERSANGYFYLLPESAQKIAQKIAQIGNEIDCCIVEMCQTLSHSLQKHLLFLKFLFKEFDFLDSLQARLNFAKAYNLEFVMPSFTQKKMILENFSHPILKEPKPLNLKFEKSMLAVTGVNAGRKTMLLKSLLSAAFLSKHLIPMKINAHHSIIPYFKEIHAIINDPQNSANNISTFAGRMKQFSALLSKENMLLGVDEIELGTDADEASSLYKTLLEKLLKQNNQIIITTHHKRLSVLMAENKEVELLAALYDEEKERPTYTFLKGVIGKSYAFETALRYGVPHFLIEKAKTFYGEDKEKLNVLIENSSALERELKQKNEHLENALKEQEYLKNAWLLEMEKQKEIFHNKKLELEKSYQQALNILKSEVASKDTSSMHKEIHKASEILSKHKTNQEIPQIITNFQANEKARYKNESVLIVQILDKGYYWIETELGMRLKAHGSLLKKIQKPPKNKFKPPKTTIPKPKEASLRLDLRGQRSEEALDLLDAFLNDALLGGFEEVLICHGKGSGILEKFVKEFLKNHPKVVSFSDAPINLGGSGVKIVKL | – | more stable at up to 80 °C | 41.59 ± 9.53 | – | 40.19 ± 8.73 | – | ~ 1.6 fold | ~ 1.6 fold | – | – | – | –
HpMutS2: Helicobacter pylori MutS2 (1-762), C-terminally His6-tagged wild-type protein, nuclease and ABC ATPase (protein, left off: His6, C-terminal, state not stated, Helicobacter pylori MutS2 (1-762), C-terminally His6-tagged wild-type protein, nuclease and ABC ATPase) MSDAPKRSLNPTLMMNNNNTPPKPLEESLDLKEFIALFKTFFAKERDTIALENDLKQTFTYLNEVDAIGLPTPKSVKESDLIIIKLTKLGTLHLDEIFEIVKRLHYIVVLQNAFKTFTHLKFHERLNAIVLPPFFNDLIALFDDEGKIKQGANATLDALNESLNRLKKESVKIIHHYARSKELAPYLVDTQSHLKHGYECLLLKSGFSGAIKGVVLERSANGYFYLLPESAQKIAQKIAQIGNEIDCCIVEMCQTLSHSLQKHLLFLKFLFKEFDFLDSLQARLNFAKAYNLEFVMPSFTQKKMILENFSHPILKEPKPLNLKFEKSMLAVTGVNAGGKTMLLKSLLSAAFLSKHLIPMKINAHHSIIPYFKEIHAIINDPQNSANNISTFAGRMKQFSALLSKENMLLGVDEIELGTDADEASSLYKTLLEKLLKQNNQIIITTHHKRLSVLMAENKEVELLAALYDEEKERPTYTFLKGVIGKSYAFETALRYGVPHFLIEKAKTFYGEDKEKLNVLIENSSALERELKQKNEHLENALKEQEYLKNAWLLEMEKQKEIFHNKKLELEKSYQQALNILKSEVASKDTSSMHKEIHKASEILSKHKTNQEIPQIITNFQANEKARYKNESVLIVQILDKGYYWIETELGMRLKAHGSLLKKIQKPPKNKFKPPKTTIPKPKEASLRLDLRGQRSEEALDLLDAFLNDALLGGFEEVLICHGKGSGILEKFVKEFLKNHPKVVSFSDAPINLGGSGVKIVKL | ~ 50 °C | – | 26.49 ± 3.95 | – | 24.82 ± 1.15 | – | – | – | ~ 1.5 fold | ~ 2.1 fold | ~ 1.5 fold | ~ 1.5 fold
